Drawing on PMC314469, “Protein Interaction Networks by Proteome Peptide Scanning” (PLoS Biology, 2004), this text covers normalised SPOT signal, Boehringer light units (BLU); mean over the file's lines of this peptide for 19 molecules.

T1: Yfr024 SH3 (LSB3_YEAST), P43603
T1 chain: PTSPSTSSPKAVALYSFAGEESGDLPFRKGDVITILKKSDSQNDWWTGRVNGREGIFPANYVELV

T2: Boi1 SH3 (BOI1_YEAST), P38041
T2 chain: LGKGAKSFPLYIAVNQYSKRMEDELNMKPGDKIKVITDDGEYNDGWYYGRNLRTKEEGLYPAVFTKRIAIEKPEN

T3: Rvs167 SH3 (RV167_YEAST), P39743
T3 chain: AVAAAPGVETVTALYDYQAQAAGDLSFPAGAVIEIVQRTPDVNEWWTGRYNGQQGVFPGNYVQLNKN

T4: Boi2 SH3 (BOI2_YEAST), P39969
T4 chain: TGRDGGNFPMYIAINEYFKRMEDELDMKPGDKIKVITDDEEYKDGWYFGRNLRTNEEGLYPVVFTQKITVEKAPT

T5: Yhr016c SH3 (YSC84_YEAST), P32793
T5 chain: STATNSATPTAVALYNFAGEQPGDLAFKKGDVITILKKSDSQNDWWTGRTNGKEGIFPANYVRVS

One assay has as its target T1, Yfr024 SH3 (LSB3_YEAST), P43603. As to the kind of experiment: SPOT array.
Molecule LHYPYGPARNPSYI [YJR126C 313-326] displayed a normalised SPOT signal, Boehringer light units (BLU); mean over the file's lines of this peptide of 277.
As to LGEPFDPNKHEATF [YOR232W 175-188], the normalised SPOT signal, Boehringer light units (BLU); mean over the file's lines of this peptide came out at 68.3.
Same read-out and setting: the same measure for LIPPLHPLKKQHPK [YIL089W 44-57]: 1420; for LIQPTAPIRDPTRF [YIR029W 48-61]: 541.
Same read-out and setting: the same measure for LFGPSFPNKTTVEI [YNL197C 178-191]: 88.8; for LIPPGFPTKNYPPG [YCL010C 185-198]: 85.1.
Turning to LHVPRNPSKSRRGS [YLR310C 161-174], the normalised SPOT signal, Boehringer light units (BLU); mean over the file's lines of this peptide stood at 1260.
On the same count and under the same terms, in the case of LDRPQLPPRQVVNA [YMR192W 159-172] it was 14400; in that of LHGPFKPVKSSNGE [YER134C 25-38], 288.
On the same count and under the same terms, the same measure for LHDPLVPIKSYGLT [YMR185W 739-752]: 126; for LKRPILPSKNMDHT [YOR191W 344-357]: 6130; for LGAPFSPRRKDKLV [YJL172W 363-376]: 1510.
LDYPKAPIKLTMKS [YIL161W 160-173] returned a normalised SPOT signal, Boehringer light units (BLU); mean over the file's lines of this peptide of 538.
Still for that read-out and setting: in the case of LDHPNIPWKLIISG [YJR117W 8-21] it was 7.9.
LIMPIYPYRLVSTI [YIL173W 525-538] registered a normalised SPOT signal, Boehringer light units (BLU); mean over the file's lines of this peptide of 3060.
The molecule LIDPSTPDKAAKKD [YGR083C 353-366] came in with a normalised SPOT signal, Boehringer light units (BLU); mean over the file's lines of this peptide of 0.
The same measure, in the same setting: in the case of LKYPYFPTKMSYLQ [YNL059C 229-242] it was 296; in that of LEQPAEPSKLAKKL [YMR108W 66-79], 19.3.
The same measure, in the same setting: the same measure for LENPSTPDKTEEDW [YKL010C 724-737]: 61.

The target in another assay is T2, Boi1 SH3 (BOI1_YEAST), P38041. As to the kind of experiment: SPOT array.
In turn, LHYPYGPARNPSYI [YJR126C 313-326] registered a normalised SPOT signal, Boehringer light units (BLU); mean over the file's lines of this peptide of 146.
Still for that read-out and setting: in the case of LGEPFDPNKHEATF [YOR232W 175-188] it was 98.8; in that of LIPPLHPLKKQHPK [YIL089W 44-57], 10.8; in that of LIQPTAPIRDPTRF [YIR029W 48-61], 30300.
For the molecule LFGPSFPNKTTVEI [YNL197C 178-191], the normalised SPOT signal, Boehringer light units (BLU); mean over the file's lines of this peptide turned out to be 91.9.
The same measure, in the same setting: in the case of LIPPGFPTKNYPPG [YCL010C 185-198] it was 40.1; in that of LHVPRNPSKSRRGS [YLR310C 161-174], 153; in that of LDRPQLPPRQVVNA [YMR192W 159-172], 143.
In turn, LHGPFKPVKSSNGE [YER134C 25-38] had a normalised SPOT signal, Boehringer light units (BLU); mean over the file's lines of this peptide of 103.
LHDPLVPIKSYGLT [YMR185W 739-752] came in with a normalised SPOT signal, Boehringer light units (BLU); mean over the file's lines of this peptide of 0.
The molecule LKRPILPSKNMDHT [YOR191W 344-357] registered a normalised SPOT signal, Boehringer light units (BLU); mean over the file's lines of this peptide of 133.
On the same count and under the same terms, the same measure for LGAPFSPRRKDKLV [YJL172W 363-376]: 140; for LDYPKAPIKLTMKS [YIL161W 160-173]: 48; for LDHPNIPWKLIISG [YJR117W 8-21]: 76.1.
On the same count and under the same terms, in the case of LIMPIYPYRLVSTI [YIL173W 525-538] it was 95.2.
LIDPSTPDKAAKKD [YGR083C 353-366] came in with a normalised SPOT signal, Boehringer light units (BLU); mean over the file's lines of this peptide of 24.8.
The same measure, in the same setting: in the case of LKYPYFPTKMSYLQ [YNL059C 229-242] it was 91.9; in that of LEQPAEPSKLAKKL [YMR108W 66-79], 86.5; in that of LENPSTPDKTEEDW [YKL010C 724-737], 50.1.

Another assay concerns the target T3, Rvs167 SH3 (RV167_YEAST), P39743. Nature of the assay: SPOT array.
The molecule LHYPYGPARNPSYI [YJR126C 313-326] returned a normalised SPOT signal, Boehringer light units (BLU); mean over the file's lines of this peptide of 56.4.
Still for that read-out and setting: the same measure for LGEPFDPNKHEATF [YOR232W 175-188]: 10.7.
Same read-out and setting: the same measure for LIPPLHPLKKQHPK [YIL089W 44-57]: 35.3.
As for LIQPTAPIRDPTRF [YIR029W 48-61], the normalised SPOT signal, Boehringer light units (BLU); mean over the file's lines of this peptide came out at 75.5.
Still for that read-out and setting: in the case of LFGPSFPNKTTVEI [YNL197C 178-191] it was 19.9.
Same read-out and setting: the same measure for LIPPGFPTKNYPPG [YCL010C 185-198]: 0.
Still for that read-out and setting: the same measure for LHVPRNPSKSRRGS [YLR310C 161-174]: 129.
Regarding LDRPQLPPRQVVNA [YMR192W 159-172], the normalised SPOT signal, Boehringer light units (BLU); mean over the file's lines of this peptide was determined as 25900.
The same measure, in the same setting: in the case of LHGPFKPVKSSNGE [YER134C 25-38] it was 107; in that of LHDPLVPIKSYGLT [YMR185W 739-752], 47.9; in that of LKRPILPSKNMDHT [YOR191W 344-357], 141.
Turning to LGAPFSPRRKDKLV [YJL172W 363-376], the normalised SPOT signal, Boehringer light units (BLU); mean over the file's lines of this peptide stood at 59.5.
The same measure, in the same setting: in the case of LDYPKAPIKLTMKS [YIL161W 160-173] it was 5.9; in that of LDHPNIPWKLIISG [YJR117W 8-21], 7.6; in that of LIMPIYPYRLVSTI [YIL173W 525-538], 189.
The same measure, in the same setting: the same measure for LIDPSTPDKAAKKD [YGR083C 353-366]: 28.2; for LKYPYFPTKMSYLQ [YNL059C 229-242]: 39.3.
On the same count and under the same terms, in the case of LEQPAEPSKLAKKL [YMR108W 66-79] it was 8.3; in that of LENPSTPDKTEEDW [YKL010C 724-737], 27.7.

The target of another assay is T4, Boi2 SH3 (BOI2_YEAST), P39969. As to the kind of experiment: SPOT array.
In turn, LHYPYGPARNPSYI [YJR126C 313-326] came in with a normalised SPOT signal, Boehringer light units (BLU); mean over the file's lines of this peptide of 31.8.
Same read-out and setting: in the case of LGEPFDPNKHEATF [YOR232W 175-188] it was 73.9.
The same measure, in the same setting: the same measure for LIPPLHPLKKQHPK [YIL089W 44-57]: 17.8; for LIQPTAPIRDPTRF [YIR029W 48-61]: 68.8.
Regarding LFGPSFPNKTTVEI [YNL197C 178-191], the normalised SPOT signal, Boehringer light units (BLU); mean over the file's lines of this peptide is 30.3.
Same read-out and setting: in the case of LIPPGFPTKNYPPG [YCL010C 185-198] it was 40.7; in that of LHVPRNPSKSRRGS [YLR310C 161-174], 234.
The same measure, in the same setting: the same measure for LDRPQLPPRQVVNA [YMR192W 159-172]: 31.9; for LHGPFKPVKSSNGE [YER134C 25-38]: 77.4; for LHDPLVPIKSYGLT [YMR185W 739-752]: 13.6.
Still for that read-out and setting: the same measure for LKRPILPSKNMDHT [YOR191W 344-357]: 45.2; for LGAPFSPRRKDKLV [YJL172W 363-376]: 25.3; for LDYPKAPIKLTMKS [YIL161W 160-173]: 12.9.
In turn, LDHPNIPWKLIISG [YJR117W 8-21] showed a normalised SPOT signal, Boehringer light units (BLU); mean over the file's lines of this peptide of 35.2.
Same read-out and setting: the same measure for LIMPIYPYRLVSTI [YIL173W 525-538]: 560; for LIDPSTPDKAAKKD [YGR083C 353-366]: 19.8.
On the same count and under the same terms, the same measure for LKYPYFPTKMSYLQ [YNL059C 229-242]: 99.
Still for that read-out and setting: the same measure for LEQPAEPSKLAKKL [YMR108W 66-79]: 37.3.
LENPSTPDKTEEDW [YKL010C 724-737] registered a normalised SPOT signal, Boehringer light units (BLU); mean over the file's lines of this peptide of 52.1.

In another assay the target is T5, Yhr016c SH3 (YSC84_YEAST), P32793. As to the kind of experiment: SPOT array.
For LHYPYGPARNPSYI [YJR126C 313-326], the normalised SPOT signal, Boehringer light units (BLU); mean over the file's lines of this peptide turned out to be 142.
Still for that read-out and setting: in the case of LGEPFDPNKHEATF [YOR232W 175-188] it was 161.
LIPPLHPLKKQHPK [YIL089W 44-57] registered a normalised SPOT signal, Boehringer light units (BLU); mean over the file's lines of this peptide of 366.
Same read-out and setting: in the case of LIQPTAPIRDPTRF [YIR029W 48-61] it was 286; in that of LFGPSFPNKTTVEI [YNL197C 178-191], 174.
The same measure, in the same setting: the same measure for LIPPGFPTKNYPPG [YCL010C 185-198]: 323; for LHVPRNPSKSRRGS [YLR310C 161-174]: 211; for LDRPQLPPRQVVNA [YMR192W 159-172]: 29100.
Take LHGPFKPVKSSNGE [YER134C 25-38]: the normalised SPOT signal, Boehringer light units (BLU); mean over the file's lines of this peptide was determined as 150.
Same read-out and setting: in the case of LHDPLVPIKSYGLT [YMR185W 739-752] it was 227.
Same read-out and setting: in the case of LKRPILPSKNMDHT [YOR191W 344-357] it was 251.
With LGAPFSPRRKDKLV [YJL172W 363-376], the normalised SPOT signal, Boehringer light units (BLU); mean over the file's lines of this peptide was determined as 250.
LDYPKAPIKLTMKS [YIL161W 160-173] had a normalised SPOT signal, Boehringer light units (BLU); mean over the file's lines of this peptide of 344.
Still for that read-out and setting: in the case of LDHPNIPWKLIISG [YJR117W 8-21] it was 150; in that of LIMPIYPYRLVSTI [YIL173W 525-538], 973.
Still for that read-out and setting: in the case of LIDPSTPDKAAKKD [YGR083C 353-366] it was 302; in that of LKYPYFPTKMSYLQ [YNL059C 229-242], 184; in that of LEQPAEPSKLAKKL [YMR108W 66-79], 96.5.
On the same count and under the same terms, in the case of LENPSTPDKTEEDW [YKL010C 724-737] it was 68.6.
